Test results reported in patent publication US20020099180A1 (published 2002).

Molecular target: T1, tetanus toxoid (UniProt P04958 2-1315)
T1 construct: also called TTX
Assay: ELISA, wells coated with FAP or irrelevant Ag as for the chimeric scFv

T1 sequence (P04958 2-457 limits assumed, chain 1 of 2): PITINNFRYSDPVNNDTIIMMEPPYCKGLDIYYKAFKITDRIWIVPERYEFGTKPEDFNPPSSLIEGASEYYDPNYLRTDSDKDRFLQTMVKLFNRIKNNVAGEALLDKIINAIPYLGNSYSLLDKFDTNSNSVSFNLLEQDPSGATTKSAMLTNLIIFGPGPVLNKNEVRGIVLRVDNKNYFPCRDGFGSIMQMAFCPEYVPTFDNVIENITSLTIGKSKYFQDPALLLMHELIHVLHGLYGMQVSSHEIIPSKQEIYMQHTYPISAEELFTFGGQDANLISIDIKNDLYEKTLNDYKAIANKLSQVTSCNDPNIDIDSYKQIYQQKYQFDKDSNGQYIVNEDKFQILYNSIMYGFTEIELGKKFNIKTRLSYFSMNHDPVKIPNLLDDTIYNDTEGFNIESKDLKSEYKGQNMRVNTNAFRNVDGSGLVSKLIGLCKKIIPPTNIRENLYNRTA
T1 sequence (P04958 458-1315 limits assumed, chain 2 of 2): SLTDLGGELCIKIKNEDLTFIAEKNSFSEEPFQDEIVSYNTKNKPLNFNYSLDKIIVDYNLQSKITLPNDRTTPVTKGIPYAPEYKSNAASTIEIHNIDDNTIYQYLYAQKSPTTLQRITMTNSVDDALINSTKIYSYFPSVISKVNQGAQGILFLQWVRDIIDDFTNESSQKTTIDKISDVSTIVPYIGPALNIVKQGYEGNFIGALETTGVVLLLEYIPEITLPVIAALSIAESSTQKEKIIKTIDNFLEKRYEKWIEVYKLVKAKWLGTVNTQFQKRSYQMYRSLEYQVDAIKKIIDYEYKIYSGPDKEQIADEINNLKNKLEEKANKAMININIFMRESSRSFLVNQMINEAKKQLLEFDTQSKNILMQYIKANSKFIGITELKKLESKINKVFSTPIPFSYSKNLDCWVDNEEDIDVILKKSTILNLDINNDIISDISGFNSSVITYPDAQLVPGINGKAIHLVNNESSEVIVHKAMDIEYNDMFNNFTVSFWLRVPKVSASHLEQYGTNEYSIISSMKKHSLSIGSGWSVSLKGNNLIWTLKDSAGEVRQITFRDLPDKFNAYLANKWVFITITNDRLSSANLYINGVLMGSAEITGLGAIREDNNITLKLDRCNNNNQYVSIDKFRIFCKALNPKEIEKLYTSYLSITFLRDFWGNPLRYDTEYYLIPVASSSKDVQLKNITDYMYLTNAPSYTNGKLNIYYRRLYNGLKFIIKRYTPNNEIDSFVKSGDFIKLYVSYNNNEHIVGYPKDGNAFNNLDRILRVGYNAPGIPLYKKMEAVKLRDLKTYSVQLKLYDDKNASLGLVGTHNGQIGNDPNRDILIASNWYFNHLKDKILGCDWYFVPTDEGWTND

Binder | binding result
scFv #34 (VH #34, IgG; VL III43; murine HCDR3 F19) (scFv, Humanised monovalent scFv, detected through the c-myc tag with 9E10; also called clone #34; VH34YOL III43; not shown: c-myc and HIS6 tags (pOPE101), or pIII in the screening ELISA) scFv: QVQLQQSGAEVKKPGSSVKVSCKASGGTFSTHTINWVRQAPGQGLEWMGGIAPMFGTANYAQKFQGRVTITADKSTSTAYMEMSSLRSDDTAVYYCARRRIAYGYDEGHAMDYWGQGTLVTVSSASTKGPKLEEGEFSEARVDIQMTQSPSSLSASTGDRVTITCRASQDISSYLAWYQQAPGKAPHLLMSGATTLQTGVPSRFSGSGSGTDFTLTISSLQAEDVAVYYCQQYYRTPFTFGQGTKLEIKRTVAAPSVFAA | no binding
scFv #18 (VH #18, IgG; VL III43; murine HCDR3 F19) (scFv, Humanised monovalent scFv, detected through the c-myc tag with 9E10; also called clone #18; VH18 YOL III43; not shown: c-myc and HIS6 tags (pOPE101), or pIII in the screening ELISA) scFv: QVQLVQSGAELKKPGSSMKVSCKASGDTFSTYSINWVRQAPGQGLEWMGVINPSGGSTSYAQKFQGRVTMTRDTSTSTVYMELSSLRSEDTAVYYCARRRIAYGYDEGHAMDYWGQGTLVTVSSASTKGPKLEEGEFSEARVDIQMTQSPSSLSASTGDRVTITCRASQDISSYLAWYQQAPGKAPHLLMSGATTLQTGVPSRFSGSGSGTDFTLTISSLQAEDVAVYYCQQYYRTPFTFGQGTKLEIKRTVAAPSVFAA | no binding
